Patent US20210147541A1 (Kyowa Kirin, published 2021)
Substitutions are numbered along the chain they refer to. In names and notes the source's numbering stands. Read-outs that look alike come from different tables or passages of the source.

T1: human CADM3 (human, UniProt Q8N126 25-398)
T1 construct: Full-length gene expressed transiently on Expi293F cells; also called cell adhesion molecule 3; human CADM3/Expi293F cells
T1 sequence: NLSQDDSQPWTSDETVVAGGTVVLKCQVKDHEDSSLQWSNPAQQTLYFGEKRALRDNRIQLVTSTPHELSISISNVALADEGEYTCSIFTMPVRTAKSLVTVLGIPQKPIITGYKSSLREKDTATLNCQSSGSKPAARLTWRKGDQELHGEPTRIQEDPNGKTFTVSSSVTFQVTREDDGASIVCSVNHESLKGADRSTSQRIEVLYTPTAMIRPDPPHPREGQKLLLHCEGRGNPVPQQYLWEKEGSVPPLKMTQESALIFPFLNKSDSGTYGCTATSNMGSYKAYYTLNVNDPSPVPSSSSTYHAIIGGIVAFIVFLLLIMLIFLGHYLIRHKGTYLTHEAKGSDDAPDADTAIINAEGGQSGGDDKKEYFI

T2: mouse CADM3 (mouse, UniProt Q99N28 23-396)
T2 construct: Full-length gene expressed transiently on Expi293F cells; also called mouse CADM3/Expi293F cells; Mouse CADM3-expressing cells
T2 sequence: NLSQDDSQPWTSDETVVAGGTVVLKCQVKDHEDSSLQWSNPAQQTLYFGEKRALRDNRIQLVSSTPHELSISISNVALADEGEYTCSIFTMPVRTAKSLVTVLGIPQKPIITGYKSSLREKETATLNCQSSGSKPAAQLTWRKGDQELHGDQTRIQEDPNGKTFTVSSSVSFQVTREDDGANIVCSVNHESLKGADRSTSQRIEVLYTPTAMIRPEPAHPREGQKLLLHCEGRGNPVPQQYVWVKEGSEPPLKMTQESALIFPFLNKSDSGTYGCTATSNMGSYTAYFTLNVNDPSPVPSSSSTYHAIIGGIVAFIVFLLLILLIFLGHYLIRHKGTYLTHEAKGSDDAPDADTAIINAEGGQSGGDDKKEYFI

B1: iCADM3_3R1-L8_04 VHH-hG4PE(R409K) (Fc fusion)
chain: QVQLVESGGGLVQPGGSLRLSCAASGRTFSNYARGWFRQAPGKEREFVAAIDYSGGSTNYADSAKGRFTISRDNSKNTVYLQMNSLRAEDTAVYYCAAPASRRPSWDADGYDYWGQGTLVTVSS
notes: also called iCADM3-3R1-L8_04 humanized antibody; not shown: Hinge-CH2-CH3 region of the human IgG4 heavy chain constant region (IgG4 variant)
B2: iCADM3_3R1-L8_01 VHH-hG4PE(R409K) (Fc fusion)
chain: B1 chain with E6Q, E44G, V79L
notes: also called iCADM3-3R1-L8_01 humanized antibody; not shown: Hinge-CH2-CH3 region of the human IgG4 heavy chain constant region (IgG4 variant)
B3: iCADM3_3R1-L8_03 VHH-hG4PE(R409K) (Fc fusion)
chain: B1 chain with E44G
notes: also called iCADM3-3R1-L8_03 humanized antibody; not shown: Hinge-CH2-CH3 region of the human IgG4 heavy chain constant region (IgG4 variant)
B4: iCADM3_3R1-L8_02 VHH-hG4PE(R409K) (Fc fusion)
chain: B1 chain with E6Q, V79L
notes: also called iCADM3-3R1-L8_02 humanized antibody; not shown: Hinge-CH2-CH3 region of the human IgG4 heavy chain constant region (IgG4 variant)
B5: iCADM3_3R1-L11 (VHH)
VHH: QVQLVESGGGLVQAGGSLRLSCAASGSIFSFNAMGWYRQAPGKQRGLVAVITSGGYTNYADSVKGRFTITRDNAKNTVYLQMNSLKPEDTAVYYCNAEGVYSDYVIMNYWGQGTQVTVSS
notes: also called iCADM3-3R1-L11 antibody; anti-CADM3 VHH antibody (phage clone)
B6: anti-AVM antibody (antibody, V domains shown)
VH: EVQLVESGGGLVQPGRSLKLSCAASGFTFSNYAMAWVRRAPTKGLEWVASISNGGGNTYYRDSVKGRFTISRDDAKNTLYLQMDSLRSEDTATYYCARHGNYIYYGSFFDYWGQGVMVTVSS
VL: QFVLSQPNSVSTNLGSTVKLSCKRSTGNIGSNYVSWYQQHEGRSPTTMIYRDDKRPDGVPDRFSGSIDRSSDSALLTINNVQTEDEADYFCQSYSSGINIFGGGTKLTVLG
notes: Negative control; also called chimeric anti-Avermectin (AVM) antibody; anti-AVM-IgG4 antibody
B7: iCADM3_3R1-L5 (VHH)
VHH: QVQLVESGGGLVQAGGSLRLSCAASGSIVSVNAMGWYRQAPGKQRELVATITSGGSTNYADSAKGRFTISRDNAKNTMYLQMNSLKPEDTAVYYCNGEFWSRRDTRPPGVVNYWGQGTQVTVSS
notes: also called iCADM3-3R1-L5 antibody; anti-CADM3 VHH antibody (phage clone)
B8: iCADM3_3R1-L10 (VHH)
VHH: QVQLVESGGGLVQAGGSLRLSCAASGSIFSIHAMGWYRQAPGKQRELVATVTSGGSTNYADSVKGRFTISRDNAKNTVYLQMNSLKPEDTAVYYCNAETPYYSSTYYTNYWGQGTQVTVSS
notes: also called iCADM3-3R1-L10 antibody; anti-CADM3 VHH antibody (phage clone)
B9: AVM IgG4PE(R409K)_iCADM3_3R1-L10 dVHH (bispecific antibody)
heavy: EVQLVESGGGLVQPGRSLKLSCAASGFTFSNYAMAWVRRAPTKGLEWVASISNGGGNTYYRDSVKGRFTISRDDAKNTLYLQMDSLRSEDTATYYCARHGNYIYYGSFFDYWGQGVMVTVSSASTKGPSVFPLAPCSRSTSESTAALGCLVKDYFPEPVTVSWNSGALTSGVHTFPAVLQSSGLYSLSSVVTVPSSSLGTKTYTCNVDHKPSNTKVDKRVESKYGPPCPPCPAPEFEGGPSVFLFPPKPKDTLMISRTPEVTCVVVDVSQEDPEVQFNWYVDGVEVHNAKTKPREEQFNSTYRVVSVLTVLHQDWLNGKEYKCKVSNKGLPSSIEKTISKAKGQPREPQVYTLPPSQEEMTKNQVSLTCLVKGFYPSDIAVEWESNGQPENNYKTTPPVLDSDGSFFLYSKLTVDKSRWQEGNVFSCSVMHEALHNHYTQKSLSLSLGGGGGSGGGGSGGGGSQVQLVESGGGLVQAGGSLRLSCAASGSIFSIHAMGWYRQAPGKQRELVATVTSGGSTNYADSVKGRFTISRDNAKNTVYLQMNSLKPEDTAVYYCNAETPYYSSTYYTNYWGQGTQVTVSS
light: QFVLSQPNSVSTNLGSTVKLSCKRSTGNIGSNYVSWYQQHEGRSPTTMIYRDDKRPDGVPDRFSGSIDRSSDSALLTINNVQTEDEADYFCQSYSSGINIFGGGTKLTVLGQPKAAPSVTLFPPSSEELQANKATLVCLISDFYPGAVTVAWKADSSPVKAGVETTTPSKQSNNKYAASSYLSLTPEQWKSHRSYSCQVTHEGSTVEKTVAPTECS
notes: also called anti-AVM-IgG4-CADM3 VHH bispecific antibody
B10: AVM IgG4PE(R409K)_iCADM3_3R1-L11 dVHH (bispecific antibody)
heavy: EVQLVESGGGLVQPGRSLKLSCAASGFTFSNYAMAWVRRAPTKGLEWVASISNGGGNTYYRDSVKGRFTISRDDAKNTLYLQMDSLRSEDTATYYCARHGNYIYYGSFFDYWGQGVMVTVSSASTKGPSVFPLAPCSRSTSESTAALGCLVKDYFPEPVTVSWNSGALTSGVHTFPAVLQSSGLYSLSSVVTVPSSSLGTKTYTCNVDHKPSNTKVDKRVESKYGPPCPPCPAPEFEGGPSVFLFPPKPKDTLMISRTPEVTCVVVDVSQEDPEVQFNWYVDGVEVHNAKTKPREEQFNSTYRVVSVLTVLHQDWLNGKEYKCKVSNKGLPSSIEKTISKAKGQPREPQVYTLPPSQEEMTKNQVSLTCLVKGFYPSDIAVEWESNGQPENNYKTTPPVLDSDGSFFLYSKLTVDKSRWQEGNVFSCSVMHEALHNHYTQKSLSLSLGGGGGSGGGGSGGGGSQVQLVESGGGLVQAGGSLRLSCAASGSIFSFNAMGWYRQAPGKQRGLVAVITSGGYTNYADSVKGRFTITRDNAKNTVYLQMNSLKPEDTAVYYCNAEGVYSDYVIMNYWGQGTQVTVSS
light: B9 light
notes: as for B9

Key:
[1] = target: T3, hCADM3-GST (human); assay: SPR (Biacore T-100), antibody captured, hCADM3-GST as analyte
T3 construct: also called extracellular domain of human CADM3 to which GST was added at the C-terminal side; human CADM3-GST
Experimental: (§1) The affinity of the anti-CADM3 antibodies produced in Example 2 for human CADM3 and mouse CADM3 was measured using Biacore T-100 (GE Healthcare). Each of the antibodies was immobilized on a […] sensor chip using a Human antibody Capture kit, and the binding ability was evaluated using hCADM3-GST and mCADM3-GST produced in Example 4 as analytes.
(§2) With respect to the produced humanized anti-CADM3 antibodies, affinity for CADM3 by surface plasmon resonance detection was evaluated by the same procedure as in Example 6.

[2] = target: T1, human CADM3; assay: flow cytometry, 10 ug/mL, human CADM3/Expi293F vs parent Expi293F cells
Experimental: (§3) After washing with SB, the cells were suspended in SB, and the fluorescence intensity of each cell was measured using a flow cytometer FACS CANTO II (manufactured by Becton, Dickinson and Company). Note that as a negative control, 10 μg/mL of the anti-AVM antibody was used.
(§4) The detection results were analyzed, and a mean fluorescence intensity (MFI) was calculated using a geometric mean. Further, with respect to the MFI when the concentration of each antibody was 10 μg/mL, the ratio of the MFI (mean fluorescence intensity ratio) between the human CADM3/Expi293F cells and the Expi293F cells (parent cell line) was calculated.
(§5) With respect to the produced humanized anti-CADM3 VHH-Fc antibodies, reactivity with Expi293F cells, human CADM3/Expi293F cells, and mouse CADM3/Expi293F cells was analyzed by the same procedure as in Example 3.

[3] = target: T4, mCADM3-GST (mouse); assay: SPR (Biacore T-100), antibody captured, mCADM3-GST as analyte
T4 construct: also called extracellular domain of mouse CADM3 to which GST was added at the C-terminal side; mouse CADM3-GST
Experimental: as §1, §2

[4] = target: T2, mouse CADM3; assay: flow cytometry, 10 ug/mL, mouse CADM3/Expi293F vs parent Expi293F cells
Experimental: as §3, §4, §5

[5] = target: T3, hCADM3-GST; assay: phage ELISA, hCADM3-GST immobilized
Experimental: (§6) In the ELISA, hCADM3-GST and mCADM3-GST were immobilized (50 ng/50 μL) on MAXISORP (manufactured by NUNC, Inc.), followed by blocking using 0.5% BSA. To each well, each phage clone was added and allowed to react at room temperature for 1 hour, and thereafter, each well was washed 5 times with PBS-T. Subsequently, a biotinylated anti-M13 phage antibody (manufactured by Abcam plc) and horseradish peroxidase-labeled streptavidin (manufactured by Vector Co., Ltd.) were added to each well in an amount of 50 μL, followed by incubation at room temperature for 1 hour.
(§7) After the microplate was washed with PBS-T, a 3,3′,5,5′-tetramethylbenzidine (TMB) chromogenic substrate solution (manufactured by Calbiochem, Inc.) was added to each well, followed by incubation at room temperature. The coloring reaction was stopped by adding a 1 mol/L hydrochloric acid to each well, and an absorbance at a wavelength of 450 nm (reference wavelength: 570 nm) was measured using a microplate reader.

[6] = target: T4, mCADM3-GST; assay: phage ELISA, mCADM3-GST immobilized
Experimental: as §6, §7

[7] = target: T2, mouse CADM3; assay: flow cytometry, mouse CADM3/Expi293F vs parent Expi293F cells
[8] = target: T2, mouse CADM3; assay: flow cytometry, 10 ug/mL, mouse CADM3/Expi293F vs parent Expi293F cells; remark: listed apart in the source
[9] = target: T2, mouse CADM3; assay: as above; remark: listed apart in the source
Experimental: as §3, §4
Further, also with respect to AVM IgG4PE(R409K)_iCADM3_3R1-L5 dVHH, AVM IgG4PE(R409K)_iCADM3_3R1-L8 dVHH, AVM IgG4PE(R409K)_iCADM3_3R1-L10 dVHH, and AVM IgG4PE(R409K)_iCADM3_3R1-L11 dVHH, reactivity with the Expi293F cells, the human CADM3/Expi293F cells, and the mouse CADM3/Expi293F cells was analyzed by the same procedure, and the results are shown in Table 5.

[10] = target: T2, mouse CADM3; assay: as above; remark: listed apart in the source
Experimental: as §3, §4, §5

Row | Binder | Mean fluorescence intensity ratio [2] | Mean fluorescence intensity ratio [4] | binding result [5] | binding result [6] | Mean fluorescence intensity ratio [9] | other results
1 | B1 | 6.2 | 9.62 | – | – | – | Kd [1]: 5.34 nM; koff [1]: 0.00078 s⁻¹; kon [1]: 150000 M⁻¹ s⁻¹; Kd [3]: 5.22 nM; koff [3]: 0.00064 s⁻¹; kon [3]: 120000 M⁻¹ s⁻¹
2 | B2 | 2.21 | 3.71 | – | – | – | –
3 | B3 | 5.65 | 8.54 | – | – | – | Kd [1]: 10.3 nM; koff [1]: 0.0019 s⁻¹; kon [1]: 190000 M⁻¹ s⁻¹; Kd [3]: 7.38 nM; koff [3]: 0.0011 s⁻¹; kon [3]: 150000 M⁻¹ s⁻¹
4 | B4 | 2.8 | 4.83 | – | – | – | –
5 | B5 | – | – | binds | binds | – | –
6 | B6 | – | 1.02 | – | – | 1.15 | binding result [7]: no binding (tested: 10 ug/mL); Mean fluorescence intensity ratio [8]: 1.07; Mean fluorescence intensity ratio [10]: 1.02
7 | B7 | – | – | binds | binds | – | –
8 | B8 | – | – | binds | binds | – | –
9 | B9 | – | – | – | – | 1.78 | –
10 | B10 | – | – | – | – | 4.66 | –
